Assay results: US20100189695A1, “IRAK-1 AS REGULATOR OF DISEASES AND DISORDERS” (priority 2008, published 2010)
Numbering of substitutions follows the chain as printed. Names may count otherwise.

B1: Interleukin-1 Receptor Associated Kinase-1 (protein)
chain: MAGGPGPGEPVVPGAQHFLYEVPPWVMCRFYKVMDALEPADWCQFAALIVRDQTELRLCERSEQRTASVLWPWINRNARVADLVHILTHLQLLRARDIITAWHPPAPVVPPSTAAPRPSSISAGSEAGDWSPRKLQSSASTFLSPAFPGSQTHSESELLQVPLPVSLGPPLPSSAPSSTKSSPESPVSGLQRAHPSPFCWPFCEISQGTCNFSEELRIGEGGFGCVYRAVMRNTTYAVKRLKEEADLEWTMVKQSFLTEVEQLSRFRHPNIVDFAGYCAESGLYCLVYGFLPNGSLEDQLHLQTQACSPLSWPQRLDILLGTARAIQFLHQDSPSLIHGDIKSSNVLLDERLMPKLGDFGLARFSRFAGAKASQSSTVARTSTVRGTLAYLPEEYIKTGRLAVDTDTFSFGVVILETLAGQRAVRTQGAKTKYLKDLIEDEAEEAGVTLKSTQPTLWVGVATDAWAAPIAAQIYKKHLDSRPGPCPPQLGLALAQLACCCMHRRAKKRPPMTQVYKRLEGLQAGPPWELEVAGHGSPSPQENSYMSTTGSAQSGDEPWQPLVVTTRAPAQAAQQLQRSPNQPVESDESVPGLSATLHSWHLTPGSHPSPASFREASCTQGGTTRESSVRSSPGFQPTTMEGSPTGSSSLLSSEPPQIIINPARQKMVQKLALYEEGVLDSLQLLSSGFFPGLDLEPEKSQGPEESDEFQS
B2: D340N: mutated IRAK-1 molecule, mutation present in human patients with cardiovascular diseases (protein, UniProt P51617 1-712, looked up, variant D340N)
Interleukin-1 …: MAGGPGPGEPAAPGAQHFLYEVPPWVMCRFYKVMDALEPADWCQFAALIVRDQTELRLCERSGQRTASVLWPWINRNARVADLVHILTHLQLLRARDIITAWHPPAPLPSPGTTAPRPSSIPAPAEAEAWSPRKLPSSASTFLSPAFPGSQTHSGPELGLVPSPASLWPPPPSPAPSSTKPGPESSVSLLQGARPFPFCWPLCEISRGTHNFSEELKIGEGGFGCVYRAVMRNTVYAVKRLKENADLEWTAVKQSFLTEVEQLSRFRHPNIVDFAGYCAQNGFYCLVYGFLPNGSLEDRLHCQTQACPPLSWPQRLDILLGTARAIQFLHQDSPSLIHGNIKSSNVLLDERLTPKLGDFGLARFSRFAGSSPSQSSMVARTQTVRGTLAYLPEEYIKTGRLAVDTDTFSFGVVVLETLAGQRAVKTHGARTKYLKDLVEEEAEEAGVALRSTQSTLQAGLAADAWAAPIAMQIYKKHLDPRPGPCPPELGLGLGQLACCCLHRRAKRRPPMTQVYERLEKLQAVVAGVPGHSEAASCIPPSPQENSYVSSTGRAHSGAAPWQPLAAPSGASAQAAEQLQRGPNQPVESDESLGGLSAALRSWHLTPSCPLDPAPLREAGCPQGDTAGESSWGSGPGSRPTAVEGLALGSSASSSSEPPQIIINPARQKMVQKLALYEDGALDSLQLLSSSSLPGLGLEQDRQGPEESDEFQS
B3: T113I: mutated IRAK-1 molecule, mutation present in human patients with cardiovascular diseases (protein, UniProt P51617 1-712, looked up, variant T113I)
Interleukin-1 …: B2 Interleukin-1 … with T113I, N340D
B4: C203S: mutated IRAK-1 molecule, mutation present in human patients with cardiovascular diseases (protein, UniProt P51617 1-712, looked up, variant C203S)
Interleukin-1 …: B2 Interleukin-1 … with C203S, N340D
B5: IRAK-M: a homologue of IRAK-1 (protein)
chain: MAGNCGARGALSAHTLLFDLPPALLGELCAVLDSCDGALGWRGLAERLSSSWLDVRHIEKYVDQGKSGTRELLWSWAQKNKTIGDLLQVLQEMGHRRAIHLITNYGAVLSPSEKSYQEGGFPNILFKETANVTVDNVLIPEHNEKGILLKSSISFQNIIEGTRNFHKDFLIGEGEIFEVYRVEIQNLTYAVKLFKQEKKMQCKKHWKRFLSELEVLLLFHHPNILELAAYFTETEKFCLIYPYMRNGTLFDRLQCVGDTAPLPWHIRIGILIGISKAIHYLHNVQPCSVICGSISSANILLDDQFQPKLTDFAMAHFRSHLEHQSCTINMTSSSSKHLWYMPEEYIRQGKLSIKTDVYSFGIVIMEVLTGCRVVLDDPKHIQLRDLLRELMEKRGLDSCLSFLDKKVPPCPRNFSAKLFCLAGRCAATRAKLRPSMDEVLNTLESTQASLYFAEDPPTSLKSFRCPSPLFLENVPSIPVEDDESQNNNLLPSDEGLRIDRMTQKTPFECSQSEVMFLSLDKKPESKRNEEACNMPSSSCEESWFPKYIVPSQDLRPYKVNIDPSSEAPGHSCRSRPVESSCSSKFSWDEYEQYKKE
B6: IRAK-1b: isoform of IRAK-1 that does not possess kinase activity (protein)
chain: MAGGPGPGEPAAPGAQHFLYEVPPWVMCRFYKVMDALEPADWCQFAALIVRDQTELRLCERSGQRTASVLWPWINRNARVADLVHILTHLQLLRARDIITAWHPPAPLPSPGTTAPRPSSIPAPAEAEAWSPRKLPSSASTFLSPAFPGSQTHSGPELGLVPSPASLWPPPPSPAPSSTKPGPESSVSLLQGARPFPFCWPLCEISRGTHNFSEELKIGEGGFGCVYRAVMRNTVYAVKRLKENADLEWTAVKQSFLTEVEQLSRFRHPNIVDFAGYCAQNGFYCLVYGFLPNGSLEDRLHCQTQACPPLSWPQRLDILLGTARAIQFLHQDSPSLIHGDIKSSNVLLDERLTPKLGDFGLARFSRFAGSSPSQSSMVARTQTVRGTLAYLPEEYIKTGRLAVDTDTFSFGVVVLETLAGQRAVKTHGARTKYLKDLVEEEAEEAGVALRSTQSTLQAGLAADAWAAPIAMQIYKKHLDPRPGPCPPELGLGLGQLACCCLHRRAKRRPPMTQENSYVSSTGRAHSGAAPWQPLAAPSGASAQAAEQLQRGPNQPVESDESLGGLSAALRSWHLTPSCPLDPAPLREAGCPQGDTAGESSWGSGPGSRPTAVEGLALGSSASSSSEPPQIIINPARQKMVQKLALYEDGALDSLQLLSSSSLPGLGLEQDRQGPEESDEFQS
B7: IRAK-1-ΔC: truncated version of IRAK-1 with deletion of the C terminal region (amino acids 548 to 712 are deleted) (protein, UniProt P51617 1-547, looked up, fragment)
chain: MAGGPGPGEPAAPGAQHFLYEVPPWVMCRFYKVMDALEPADWCQFAALIVRDQTELRLCERSGQRTASVLWPWINRNARVADLVHILTHLQLLRARDIITAWHPPAPLPSPGTTAPRPSSIPAPAEAEAWSPRKLPSSASTFLSPAFPGSQTHSGPELGLVPSPASLWPPPPSPAPSSTKPGPESSVSLLQGARPFPFCWPLCEISRGTHNFSEELKIGEGGFGCVYRAVMRNTVYAVKRLKENADLEWTAVKQSFLTEVEQLSRFRHPNIVDFAGYCAQNGFYCLVYGFLPNGSLEDRLHCQTQACPPLSWPQRLDILLGTARAIQFLHQDSPSLIHGDIKSSNVLLDERLTPKLGDFGLARFSRFAGSSPSQSSMVARTQTVRGTLAYLPEEYIKTGRLAVDTDTFSFGVVVLETLAGQRAVKTHGARTKYLKDLVEEEAEEAGVALRSTQSTLQAGLAADAWAAPIAMQIYKKHLDPRPGPCPPELGLGLGQLACCCLHRRAKRRPPMTQVYERLEKLQAVVAGVPGHSEAASCIPPSPQENSY

tested on: NFAT; assay: NFAT responsive element luciferase reporter assay in transfected Hela cells; type: cell-based, human; conditions: co-transfection of expression plasmid with NFAT reporter
Excerpt: NFAT family transcription factors play critical roles in the pathogenesis of cardiovascular diseases, including hypertension and atherosclerosis. […] First, human Hela cells were trasfected with either empty vector plasmid or wild type IRAK-1 expression plasmid together with a NFAT responsive element-containing luciferase reporter plasmid. […] Subsequently, plasmids that express mutated IRAK-1 molecules (D340N, C203S, T113I, mutations which are present in human patients with cardiovascular diseases) have been generated.
Further experiments were performed to ask whether the C-terminal domain of IRAK-1 is involved in facilitating its suppressive regulatory function toward NFAT activity. […] Statistical significance was calculated using a t-Test for two-samples assuming unequal variances and p-values are as indicated.
In order to determine the mechanism for IRAK-1 involvement, transcription factor reporter assays were performed. In this set of experiments, NFAT reporter activity was determined in the presence of IRAK-1 or IRAK-M, a homologue of IRAK-1 (FIG. 10).

Question: For B1, which “suppression of NFAT reporter activity” value is on record?
Answer: The value was “suppression of NFAT by IRAK-1 could be seen”.

Question: For B2, which “suppression of NFAT reporter activity” value is on record?
Answer: The value was “failed to suppress NFAT activity”.

Question: With B3 as the molecule, how does the “suppression of NFAT reporter activity” value read?
Answer: The value was “failed to suppress NFAT activity”.

Question: With B4 as the molecule, how does the “suppression of NFAT reporter activity” value read?
Answer: The value was “failed to suppress NFAT activity”.

Question: Which “suppression of NFAT reporter activity” value does the source give for B5 here?
Answer: Its value is “did not show suppression of NFAT”.

Question: For B6, which “suppression of NFAT reporter activity” value is on record?
Answer: The value was “cannot fulfill the inhibitory function on NFAT”.

Question: With B7 as the molecule, how does the “suppression of NFAT reporter activity” value read?
Answer: The value was “failed to suppress NFAT activity”.

same assay, conditions: co-transfection with NFAT-luciferase reporter plasmid, Hela cells; control adjusted to 100%

Question: With B1 as the molecule, how does the “reduction of NFAT reporter luciferase activity compared with the control transfection” value read?
Answer: Its value is −80%.

tested on: NFAT; assay: Co-immunoprecipitation of Flag-IRAK-1 constructs with NFAT in transfected Hela cells; type: binding, human; conditions: anti-Flag IP, anti-NFAT Western blot
Protocol: To further delineate which part of IRAK-1 is involved in its interaction with NFAT, experiments were performed using full-length IRAK-1 and a C-terminally truncated form (IRAK-1ΔC—see FIG. 1). Specifically, Hela cells were transfected with IRAK-1 encoding plasmids that express either the full length wild type human IRAK-1 protein or a truncated version of IRAK-1 with deletion of the C terminal region (amino acids 548 to 712 are deleted). Equal amount of cell lysates were harvested from the transfected cells and used to perform co-immunoprecipitation assays with an anti-Flag antibody. Immunoprecipitated proteins were resolved by electrophoresis, and the co-immunoprecipitated proteins were subjected to Western blot analyses using an anti-NFAT antibody.

Question: B1 was tested. Which “co-immunoprecipitation with NFAT” value did it give?
Answer: The value was “capable of co-immunoprecipitating with NFAT”.
